Laboratory results from patent publication US20090031441A1 (NATIONAL UNIVERSITY CORPORATION NAGOYA UNIVERSITY, published 2009).

T1: RGL3 (Arabidopsis DELLA protein), yeast two-hybrid prey in pGADT7 AD vector (Arabidopsis, UniProt Q9LF53 1-523)
T1 construct: also called AtDELLA
T1 sequence (looked up): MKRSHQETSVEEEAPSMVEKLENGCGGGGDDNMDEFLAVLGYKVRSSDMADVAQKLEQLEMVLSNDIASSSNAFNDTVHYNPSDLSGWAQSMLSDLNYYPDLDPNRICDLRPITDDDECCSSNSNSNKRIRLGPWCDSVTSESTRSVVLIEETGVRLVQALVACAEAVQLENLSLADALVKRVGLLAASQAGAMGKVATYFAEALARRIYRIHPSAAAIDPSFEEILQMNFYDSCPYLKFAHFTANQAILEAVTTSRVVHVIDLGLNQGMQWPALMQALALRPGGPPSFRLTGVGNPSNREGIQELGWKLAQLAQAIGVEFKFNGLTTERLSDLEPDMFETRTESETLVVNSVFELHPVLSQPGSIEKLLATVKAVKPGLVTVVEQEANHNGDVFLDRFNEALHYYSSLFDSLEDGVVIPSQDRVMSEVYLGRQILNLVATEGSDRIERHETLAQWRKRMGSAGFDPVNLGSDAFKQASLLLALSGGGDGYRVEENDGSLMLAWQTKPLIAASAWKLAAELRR

T2: RGA (Arabidopsis DELLA protein), yeast two-hybrid prey in pGADT7 AD vector (Arabidopsis, UniProt Q9SLH3 1-587)
T2 construct: also called AtDELLA
T2 sequence (looked up): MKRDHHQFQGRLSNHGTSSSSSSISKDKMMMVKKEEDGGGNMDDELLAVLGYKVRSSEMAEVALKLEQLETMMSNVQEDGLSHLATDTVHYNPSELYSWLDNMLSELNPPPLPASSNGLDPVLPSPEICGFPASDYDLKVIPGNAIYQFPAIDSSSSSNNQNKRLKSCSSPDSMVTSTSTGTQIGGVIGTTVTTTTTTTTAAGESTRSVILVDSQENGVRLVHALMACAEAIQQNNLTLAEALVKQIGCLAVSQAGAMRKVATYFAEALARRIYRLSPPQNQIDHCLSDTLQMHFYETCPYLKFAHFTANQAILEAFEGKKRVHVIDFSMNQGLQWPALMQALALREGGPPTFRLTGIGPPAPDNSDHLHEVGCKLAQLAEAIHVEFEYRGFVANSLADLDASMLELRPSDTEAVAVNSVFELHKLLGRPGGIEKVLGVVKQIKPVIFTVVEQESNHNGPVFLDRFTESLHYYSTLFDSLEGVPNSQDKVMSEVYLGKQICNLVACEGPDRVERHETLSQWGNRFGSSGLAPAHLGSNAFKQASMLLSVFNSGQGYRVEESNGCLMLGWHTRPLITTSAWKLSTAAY


Key:
[1] = target: T1, RGL3 (Arabidopsis DELLA protein), yeast …; assay: yeast two-hybrid, AtGID1 bait and AtDELLA prey, 10^-5 M GA4 in medium; colony growth (Assay A) and beta-galactosidase activity (Assay B)
Method: (§1) Panel A) depicts AtGID1-AtDELLA interaction in the presence of GA in two types of yeast hybrid (Y2H) assays. Each AtGID1 was used as a bait while AtDELLA was a prey. GA₄ (10⁻⁵ M) was added to the medium. The bars indicates β-galactosidase activity when o-nitrophenol-β-D-galactopyranoside was used as a substrate (Assay B). The growth of each transformant in the defined medium for 2 days (Assay A) is shown beneath of each bar graph. The experiment was carried out in quadruplicate. The SD value shown in the figure was determined from three measurements. Panel B) depicts the dose response in AtGID1-RGA interaction in Assay B of Y2H. GA₄ (10⁻⁵ to 10⁻⁹ M) was added to the medium. The experiment was conducted in duplicates. The SD value shown in the figure was determined from three measurements. Panel C) depicts the results of an evaluation of the in vitro GA-binding potency of AtGID1 using AtDELLA. Left panel, 15 minutes after mixing AtGID1c (C), tritiated GA, with an excess amount of non-labeled GA (+) or without non-labeled GA (−). GAI (G) or RGA (R) was added, and then the GA-binding activity in each reaction mixture was measured according to the standard method. Recombinant protein originating from the vector (v) was used as a negative control. The experiment was carried out in duplicates. The SD value was determined from three measurements. Right panel, a profile of Western blotting for recombinant AtDELLA using an antibody to His tag. G, GAI; R, RGA; v, vector; M, molecular weight marker.
(§2) Arabidopsis has five DELLA proteins (RGA, GAI, RGL1, RGL2, and RGL3; collectively designated AtDELLA; Fleet, C. M., and Sun, T.-P. (2005) Curr. Opin. Plant Biol., 8, 77-85; Dill, A., and Sun, T. (2001) Genetics, 159, 777-785); therefore, there are 15 possible combinations of GID1/DELLA proteins. To verify the positive interactions between AtGID1-AtDELLA, two experiments were conducted using the yeast two hybrid (Y2H) system. […] In the second experiment (Assay B), β-galactosidase activity was measured, as reporter gene product of AtGID1-AtDELLA interactions. […]

[2] = target: T2, RGA (Arabidopsis DELLA protein), yeast …; assay: as above
Method: as §1, §2

binding result [1] | binding result [2] | Binder
binds |  | AtGID1b (At3g63010), yeast two-hybrid bait in pGBKT7 DNA-BD vector (receptor, not shown: small tags and cut ends, Bait fusion for the Y2H assays; also called Arabidopsis GID1) MAGGNEVNLNECKRIVPLNTWVLISNFKLAYKVLRRPDGSFNRDLAEFLDRKVPANSFPLDGVFSFDHVDSTTNLLTRIYQPASLLHQTRHGTLELTKPLSTTEIVPVLIFFHGGSFTHSSANSAIYDTFCRRLVTICGVVVVSVDYRRSPEHRYPCAYDDGWNALNWVKSRVWLQSGKDSNVYVYLAGDSSGGNIAHNVAVRATNEGVKVLGNILLHPMFGGQERTQSEKTLDGKYFVTIQDRDWYWRAYLPEGEDRDHPACNPFGPRGQSLKGVNFPKSLVVVAGLDLVQDWQLAYVDGLKKTGLEVNLLYLKQATIGFYFLPNNDHFHCLMEELNKFVHSIEDSQSKSSPVLLTP
 | binds | AtGID1a (At3g05120), yeast two-hybrid bait in pGBKT7 DNA-BD vector (receptor, not shown: small tags and cut ends, Bait fusion for the Y2H assays (BD Matchmaker Two-hybrid System 3); also called Arabidopsis GID1) MAASDEVNLIESRTVVPLNTWVLISNFKVAYNILRRPDGTFNRHLAEYLDRKVTANANPVDGVFSFDVLIDRRINLLSRVYRPAYADQEQPPSILDLEKPVDGDIVPVILFFHGGSFAHSSANSAIYDTLCRRLVGLCKCVVVSVNYRRAPENPYPCAYDDGWIALNWVNSRSWLKSKKDSKVHIFLAGDSSGGNIAHNVALRAGESGIDVLGNILLNPMFGGNERTESEKSLDGKYFVTVRDRDWYWKAFLPEGEDREHPACNPFSPRGKSLEGVSFPKSLVVVAGLDLIRDWQLAYAEGLKKAGQEVKLMHLEKATVGFYLLPNNNHFHNVMDEISAFVNAEC
